Laboratory results: the supplement of paper PMC9732359
± gives the uncertainty stated by the source.

test: protein stability index of a GFP-peptide fusion (yeast GPS) (PSI 1-4); higher = more stable; sorted into four equal gates, so the index is relative within each strain; details: doa10∆
In short: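 Plasmids in a pooled yeast library fused tiled 17-residue yeast protein peptides downstream of GFP and also expressed Cherry. Mid-log cultures grown without leucine were sorted into four equal gates by GFP/Cherry fluorescence ratio. Each gate's plasmids were PCR-amplified and Illumina-sequenced, and reads were matched to strains by barcodes. The protein stability index is derived by multiplying each gate's read frequency by its gate number and summing the results.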

Row | Sequence | protein stability index
1 | HKQIHTTIFVKSTTPYV [POP7] | 2.15 ± 0.045

same assay, conditions: pdr5∆

Row | Sequence | protein stability index
2 | GILDEIMFNHARIIRSE [RGR1] | 2.98 ± 0.071
3 | GILGNKAQAKMDKRAKT [RPL8B] | 3.48 ± 0.15
4 | GINKIPPKPRKVLQLLR [RPL7A] | 3.15 ± 0.11
5 | GINKKKLLAISKFNNAD [RPC31] | 1.93 ± 0.18
6 | GIREKRAREKAEAEAEK [RPL13A] | 3.5 ± 0.25
7 | GIRWELISRLCPNSTGA [RPT1] | 2.25 ± 0.05
8 | GIVDELAYAVLGIALIA [RPN1] | 1.42 ± 0.1
9 | GKAATAKETHTKPSETP [YOR098C/NUP1] | 2.84 ± 0.094
10 | GKASLFAQGKRRYDRKQ [RPL42A] | 3.09 ± 0.1
11 | GKEHIVAALVSLTEKFS [ECM29] | 1.95 ± 0.055
12 | GKGIKLSIAEERDRRRA [RPS4A] | 2.87 ± 0.16
13 | GKHLSYQRSKRVNNPNV [RPL33A] | 1.92 ± 0.038
14 | GKIEKIAQSKKKNNKIK [SRP21] | 3.02 ± 0.078
15 | GKKKSATAVAHVKAGKG [RPS16A] | 2.69 ± 0.073
16 | GKKVLNKNQLLKRNRIR [POP1] | 3.08 ± 0.055
17 | GKPSFVFGASDKQAEGT [YOR098C/NUP1] | 3.07 ± 0.12
18 | GKRQVLLRPSSKVIIKF [RPS22B] | 2.21 ± 0.055
19 | GKTGLSNMILGSVELST [YML103C/NUP188] | 2.57 ± 0.086
20 | GKTLAFVIPILIKMSRS [PRP28] | 1.62 ± 0.079
21 | GKTYMGWWGHMGGPKQK [QCR8] | 1.79 ± 0.11
22 | GKVRLWKATYSNEFKCM [YGL100W/SEH1] | 1.84 ± 0.053
23 | GLAVGLALINYGRQELA [RPN2] | 1.21 ± 0.076
24 | GLESLLNIGLGAVGLKD [YCS4] | 2.61 ± 0.15
25 | GLHPFEVAQLGSLACDT [RPB4] | 2.25 ± 0.18
26 | GLIPYPHHNQSPRNTYQ [RET1] | 2.77 ± 0.095

Row | Sequence | protein stability index
27 | GLIYSFNEENGEDSTKP [POP1] | 3.21 ± 0.18
28 | GLMSANNIIAEGIEKMG [FAS2] | 1.74 ± 0.098
29 | GLRNQNMVRNNNNNTID [GRR1] | 2.86 ± 0.071
30 | GLSAREAVKQAAKIIYL [PRE10] | 2.59 ± 0.063
31 | GLTSRLQRQQRKSKLNL [POP4] | 3.34 ± 0.18
32 | GLVKQHLDSFNYFVDTD [RET1] | 3.05 ± 0.097
33 | GNAKESKALLREISNFS [SRP72] | 2.94 ± 0.13
34 | GNIDTKNNILGSNVLKS [RRP43] | 2.97 ± 0.044
35 | GNISSSTVKKKDIVNIS [REC8] | 3.07 ± 0.056
36 | GNKALEDEEEFSIFNYF [RPC34] | 3.37 ± 0.14
37 | GNSEAIPGLSAGVNNDN [RTT102] | 3.53 ± 0.082
38 | GNSFHLMRELLKMMKLI [PRP8] | 2.41 ± 0.046
39 | GPENALNVYHYFGENSS [YJL039C/NUP192] | 2.05 ± 0.042
40 | GPRAVLTRQPTEGRSRD [RET1] | 3.35 ± 0.066
41 | GPSAMRLSRCIRDNKLV [RPC82] | 2.23 ± 0.13
42 | GQLEDFDSELIHLKQKL [SMC3] | 2.89 ± 0.16
43 | GQLISLLFEDLFKKFNN [RET1] | 3.22 ± 0.23
44 | GQVVLTPLTFALPRGAR [RPL14A] | 1.55 ± 0.071
45 | GRFLRVPKEGLFYFDSS [BRR2] | 3.32 ± 0.073
46 | GRIRTTREDVSPHYNSQ [SSN3] | 2.02 ± 0.091
47 | GRNLGRIGTIVHKERHD [RPS4A] | 2.03 ± 0.098
48 | GRQTVLIKDNSAMVTTA [SRB2] | 1.8 ± 0.28
49 | GRRLSMLASQANGGSTI [DSN1] | 2.7 ± 0.074
50 | GRTGNGNMGITTEMLDK [MED6] | 3.23 ± 0.062
51 | GRVYRPLFIVEDDESLG [RPB2] | 1.8 ± 0.087

Row | Sequence | protein stability index
52 | GSAATSGFEFSKEDTLR [RPN1] | 3.14 ± 0.16
53 | GSAITGPVGKECADLWP [RPL23A] | 2.75 ± 0.085
54 | GSARTRWEMEAFGEFSL [FAS2] | 2.92 ± 0.13
55 | GSGNNNEIESRQLTSLG [SNU114] | 3.32 ± 0.16
56 | GSKSASKQTPQPKAPRA [ISW2] | 3.17 ± 0.12
57 | GSLARAGKVKSQTPKVE [RPS30A] | 2.7 ± 0.069
58 | GSNYNPYFPGGSIAMAR [CYT1] | 2.4 ± 0.13
59 | GSPKSATSKTSEMLAKY [CDC53] | 2.48 ± 0.072
60 | GSPQMLANEERLSNEMH [RGR1] | 2.95 ± 0.071
61 | GSTTIEKKNDENSTSNS [YLR335W/NUP2] | 3.18 ± 0.097
62 | GSVMSASVEIVFHDPDH [SMC3] | 2.53 ± 0.071
63 | GSYNAFEPASRLQGIKL [COR1] | 3.16 ± 0.068
64 | GTHNMYKEIRDVSRVAA [RPL20A] | 2.22 ± 0.14
65 | GTKSNEKKDSGSSKPAF [YJL041W/NSP1] | 3.45 ± 0.072
66 | GTNPLSSDGAYTEQFQH [SSN2] | 3.09 ± 0.075
67 | GTPKTDSFIFDGTAKEV [MED4] | 2.43 ± 0.046
68 | GTPPMLHQRTHKQVYPL [DSN1] | 2.87 ± 0.069
69 | GVEEVEGEYELTEAVED [RPL5] | 3.45 ± 0.13
70 | GVERLIPVGDNTVVGIS [PRE4] | 2.91 ± 0.081
71 | GVEYRLRLRISRKRNEE [RPL31A] | 1.26 ± 0.12
72 | GVILMFAAILVLLVLPF [COB] | 1.34 ± 0.05
73 | GVRSNHLRSNILKDLIY [SMC1] | 2.35 ± 0.16
74 | GVSISVSFNSKQNEQLH [SMC3] | 2.01 ± 0.065
75 | GVSRQIAASAFLSLLNL [REC8] | 1.31 ± 0.045
76 | GWDSLASRNVWSFYNGN [SNU114] | 3.12 ± 0.077

Row | Sequence | protein stability index
77 | GWWGHMGGPKQKGITSY [QCR8] | 2.13 ± 0.08
78 | GYDKKKNKPELYQIDYL [PRE1] | 2.91 ± 0.098
79 | GYKSTVKSLRQGKSKLI [RPL30] | 1.35 ± 0.059
80 | GYVIKVFNNGIVVLVPK [DIS3] | 2.38 ± 0.079
81 | HASENISLSFSRPASYG [SIR4] | 2.53 ± 0.044
82 | HAYNITFNNQDKGLLPY [RPO31] | 3.09 ± 0.2
83 | HDIAYSKDGLPNKVKTE [RRP6] | 2.51 ± 0.23
84 | HDTLNNEIANSIIQSKQ [BRR2] | 2.95 ± 0.064
85 | HECRLRDMTYSAPIYVD [RET1] | 1.67 ± 0.099
86 | HENYIQDDDFPLDDAGT [MCD1] | 2.98 ± 0.051
87 | HEVQYQESSSTLSTHST [SIN4] | 2.78 ± 0.036
88 | HFAWLPTHIWNAKRSHM [POP1] | 1.67 ± 0.035
89 | HFFQIDGFNKTFHDELN [YML103C/NUP188] | 2.04 ± 0.12
90 | HFLQFSELAGDEELEAE [PRP8] | 3.11 ± 0.27
91 | HFRAPSRILYKAIRGMV [RPL16B] | 2.67 ± 0.059
92 | HGKASRQQYYSGVQVGG [SNF6] | 2.8 ± 0.063
93 | HGVSFKKRAPRAVKEIK [RPL31A] | 2.73 ± 0.14
94 | HHWLLDKLSGCYAPRPS [RPS4A] | 1.94 ± 0.062
95 | HHYNPKTKKLNLSAFKI [BRR2] | 2.4 ± 0.05
96 | HIHDLEKFSPKSFISKL [SRP54] | 2.12 ± 0.042
97 | HIHKHVKDEAFDDLLKP [RET1] | 3.4 ± 0.12
98 | HIKEASEEVDDLSMVPK [SNF2] | 3.24 ± 0.25
